The target of test [1] is HTRA1-1 (human). In words: FP.
Test [2] has as its target T1, MAST2-1 (human).
T1 chain: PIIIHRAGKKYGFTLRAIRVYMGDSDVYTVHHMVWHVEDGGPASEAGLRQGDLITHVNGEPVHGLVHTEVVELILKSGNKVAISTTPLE
In words: FP.

In test [3] the target is HTRA1-1 (human). Put plainly: FP; competitive FP with fRSK1 tracer.
The target in test [4] is T1, MAST2-1. Put plainly: FP; competitive FP with fRSK1 tracer.

Where no end group is shown, it is not given here. The star is where a group is joined. Biotin = O=C1N[C@H]2[C@H](CS[C@H]2CCCCC(=O)*)N1; TTDS = NCCCOCCOCCOCCCNC(=O)CCC(=O)*

Sequence of HTRA1-1 (human) (chain, as listed by the source): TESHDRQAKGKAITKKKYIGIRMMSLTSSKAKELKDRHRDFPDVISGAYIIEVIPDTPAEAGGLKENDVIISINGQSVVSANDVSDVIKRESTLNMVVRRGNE

Consider Fluorescein-KLPSTTL [fRSK1], for which the figures for the Kd with HTRA1-1 [1] and in the test with MAST2-1 [2] were 64.8 µM and 6.87 µM, respectively.
Turning to {Biotin-TTDS}-DEDQHTQITKV [PTEN_11], the Kd in the test with HTRA1-1 [3] came out at 45.1 µM; with MAST2-1 [4], 3.14 µM.

Source of the values: paper PMC7774954 (2020).
